From patent publication US11542488B2, “Sortase synthesized chimeric antigen receptors” (Novartis AG, priority 2014, dated 2023)

Assays:
[1] = system: scFV directed to CD19 harboring a LPXTG sortase-recognition motif (scFV19); assay: Sortase-mediated labeling of scFV19 with GGGK(TAMRA) peptide, reducing SDS-PAGE and fluorescent scanning; assay type: biochemical; settings: for calcium requirement for labeling of scFV19 with TAMRA peptide: absence or presence of 10 mM calcium
Excerpt: Characterization of the enzyme was initially done in vitro using purified proteins. As the reaction substrate, a scFV directed to CD19 (scFV19) comprising a sortase A recognition motif (LPETGG, SEQ ID NO: 21) and a His8 (SEQ ID NO: 111) purification handle at the C-terminus (also referred to herein as scFv19.LPETGG.His8 (“LPETGG” and “His8” disclosed as SEQ ID NOS 21 and 111, respectively)) was cloned, expressed, and purified. This is the same scFV19 that was used in subsequent examples to test site-specific attachment to live cells using sortase:
As a nucleophile for these test reactions fluorescently labeled peptide: GGGK(TAMRA) (KRUEGANA-001-EXP022) (SEQ ID NO:23) was synthesized and purified. The fluorophore moiety allowed for convenient monitoring of the reaction by SDS-PAGE followed by fluorescent scanning.
The activities of mutant and wild-type (SrtA aureus_His6SrtA26-206 (“His6” disclosed as SEQ ID NO: 110)) sortases were compared side-by-side in the absence or presence of 10 mM calcium in 50 mM Tris-Cl, pH 7.4, 150 mM NaCl buffer, using final concentrations of 40 μM sortase, 20 μM scFV.LPETG.His8 (“LPETG” and “His8” disclosed as SEQ ID NOS 112 and 111, respectively), and 1 mM GGGK(TAMRA) (SEQ ID NO:23). The reactions were incubated at 37° for different periods of time (as indicated in FIG. 2), and analyzed by reducing SDS-PAGE followed by fluorescent scanning (using a ChemiDoc gel imaging system from BioRad) and coomassie staining.
The activity of mutant sortase A was active in culture media (RMPI supplemented with 1% FBS) was determined using the same reaction conditions as in Example 2. The presence of the fluorescent bands indicates the successful coupling of scFv19 to the TAMRA-labeled peptide in the presence of cell culture media. […] As in Example 2, the reaction was complete upon 45′ incubation at 37° C. (FIG. 3). […]

CD19 = target: T1, CD19 (Homo sapiens, UniProt P15391); assay: Flow cytometry labeling of K562 cells with scFV19 conjugated to TAMRA; assay type: binding
T1 construct: expressed in transfected cells; host or cells: K562
T1 sequence (P15391 20-556): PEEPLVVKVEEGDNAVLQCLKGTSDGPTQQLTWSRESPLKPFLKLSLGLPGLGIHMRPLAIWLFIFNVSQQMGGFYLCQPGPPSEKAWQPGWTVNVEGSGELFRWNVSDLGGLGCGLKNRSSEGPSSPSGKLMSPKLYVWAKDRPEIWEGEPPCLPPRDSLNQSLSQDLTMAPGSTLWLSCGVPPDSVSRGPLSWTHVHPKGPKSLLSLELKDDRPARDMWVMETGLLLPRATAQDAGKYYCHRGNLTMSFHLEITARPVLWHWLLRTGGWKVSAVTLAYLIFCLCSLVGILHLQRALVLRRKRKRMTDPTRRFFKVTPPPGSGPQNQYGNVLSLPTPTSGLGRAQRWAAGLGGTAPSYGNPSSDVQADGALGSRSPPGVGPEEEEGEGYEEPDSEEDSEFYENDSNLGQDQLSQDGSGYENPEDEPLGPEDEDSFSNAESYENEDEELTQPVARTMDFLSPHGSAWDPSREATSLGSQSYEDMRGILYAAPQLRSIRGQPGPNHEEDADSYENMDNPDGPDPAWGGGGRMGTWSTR
Excerpt: As a control, scFV19 subjected to the same reaction conditions to label the scFV with TAMRA, but omitting sortase (scFV19.LPETG+TAMRA_not conjugated (SEQ ID NO: 112)) was used. Flow cytometry analysis comparing cell labeling is shown.
To determine whether the presence of the sortase-recognition motif interferes with the ability of the scFV19 to recognize CD19, the scFV19.LPETGG.His8 (“LPETGG” and “His8” disclosed as SEQ ID NOS 21 and 111, respectively) was labeled with the G3K(TAMRA) peptide (SEQ ID NO:23) using the mutant sortase A as described in Example 1. […] Upon reaction, each of the preparations were filtered through a desalting column to remove unreacted G3K(TAMRA) peptide (SEQ ID NO: 23). Different concentrations of the scFV19.LPETG3K(TAMRA) conjugate (“LPETG3K” disclosed as SEQ ID NO: 250) and unconjugated control were then used to label untransduced K562 cells or K562 overexpressing CD19. […] Thus, the results presented herein confirm that the scFV19.LPETGG.His8 substrate (“LPETGG” and “His8” disclosed as SEQ ID NOS 21 and 111, respectively) for sortase is functional and that the sortase labeling strategy can be used to create new tools for FACS staining.

[2] = 40 μM sortase, 20 μM scFV, 1 mM GGGK(TAMRA), 37°

B1: mutant sortase A: S. aureus Sortase A mutant lacking the N-terminal 59 amino acids, calcium independent and faster (SEQ ID NO: 4) (protein)
chain: MQAKPQIPKDKSKVAGYIEIPDADIKEPVYPGPATREQLNRGVSFAKENQSLDDQNISIAGHTFIDRPNYQFTNLKAAKKGSMVYFKVGNETRKYKMTSIRNVKPTAVEVLDEQKGKDKQLTLITCDDYNEETGVWETRKIFVATEVKLEHHHHHH
**Q.** Which “incubation time at which fluorescence was demonstrated” value [1, 2] does the source give for B1 here?
**A.** ≤ 15 min

**Q.** What about the “time to same labeling proportion with three-fold higher enzyme concentration” value ([1]; 120 μM versus 40 μM sortase) of the same molecule?
**A.** half of the time

**Q.** And the “incubation time for complete labeling of scFV19 with TAMRA peptide” value ([1]; 50 mM Tris-Cl, pH 7.4, 150 mM NaCl buffer, 37° C.)?
**A.** 45 ′

**Q.** What about the “reaction speed compared with wild-type sortase” value ([1]; 37°) of the same molecule?
**A.** faster

**Q.** What about the “specificity: serum proteins labeled with fluorophore” value ([1]; RPMI + 1% FBS) of the same molecule?
**A.** no proteins from the serum

**Q.** And the “activity in culture media” value ([1]; RPMI supplemented with 1% FBS)?
**A.** active

**Q.** And the “calcium requirement for labeling of scFV19 with TAMRA peptide” value [1, 2]?
**A.** regardless of whether calcium was present

**Q.** And the “fluorescence compared to reactions containing wild-type sortase” value ([1]; all three timepoints)?
**A.** Increased fluorescence

**Q.** And the “incubation time for complete reaction” value ([1]; culture media (RPMI + 1% FBS), 37° C.)?
**A.** 45 ′

**Q.** And the “labeling differences between reactions in buffer or in culture media” value ([1]; reaction kinetics and fluorescence intensity)?
**A.** No major labeling differences

B2: scFV19.LPETG3K(TAMRA) conjugate (conjugate)
scFv: EIVMTQSPATLSLSPGERATLSCRASQDISKYLNWYQQKPGQAPRLLIYHTSRLHSGIPARFSGSGSGTDYTLTISSLQPEDFAVYFCQQGNTLPYTFGQGTKLEIKGGGGSGGGGSGGGGSQVQLQESGPGLVKPSETLSLTCTVSGVSLPDYGVSWIRQPPGKGLEWIGVIWGSETTYYSSSLKSRVTISKDNSKNQVSLKLSSVTAADTAVYYCAKHYYYGGSYAMDYWGQGTLVTVSSLPETGGGK
**Q.** How did the “cell labeling by flow cytometry” value (CD19; untransduced K562 cells or K562 overexpressing CD19, 30 min at 4° C., control reaction without sortase) turn out when B2 was run?
**A.** cell labeling was observed only with the conjugate and only on K562 cells expressing CD19

B3: scFV19.LPETGG.His8: scFV directed to CD19 comprising a sortase A recognition motif (LPETGG) and a His8 handle at the C-terminus (SEQ ID NO: 22) (protein)
scFv: METDTLLLWVLLLWVPGSTGEIVMTQSPATLSLSPGERATLSCRASQDISKYLNWYQQKPGQAPRLLIYHTSRLHSGIPARFSGSGSGTDYTLTISSLQPEDFAVYFCQQGNTLPYTFGQGTKLEIKGGGGSGGGGSGGGGSQVQLQESGPGLVKPSETLSLTCTVSGVSLPDYGVSWIRQPPGKGLEWIGVIWGSETTYYSSSLKSRVTISKDNSKNQVSLKLSSVTAADTAVYYCAKHYYYGGSYAMDYWGQGTLVTVSSLPETGGLDVLFEGPHHHHHHHH
modifications: C-terminal LPETGG sortase motif and His8 tag
**Q.** Which “functionality of scFV19 carrying the sortase-recognition motif (recognition of CD19)” value (CD19; K562 cells expressing CD19) does the source give for B3 here?
**A.** functional

B4: wild-type sortase: wild-type S. aureus sortase A (His6SrtA26-206) (protein, UniProt Q2FV99 26-206, looked up, fragment)
chain: KPHIDNYLHDKDKDEKIEQYDKNVKEQASKDKKQQAKPQIPKDKSKVAGYIEIPDADIKEPVYPGPATPEQLNRGVSFAEENESLDDQNISIAGHTFIDRPNYQFTNLKAAKKGSMVYFKVGNETRKYKMTSIRDVKPTDVGVLDEQKGKDKQLTLITCDDYNEKTGVWEKRKIFVATEVK
modifications: His6 tag
**Q.** Which “fluorescence at 15 minutes of incubation” value [1, 2] does the source give for B4 here?
**A.** no fluorescence was detected

**Q.** And the “calcium requirement for labeling of scFV19 with TAMRA peptide” value [1, 2]?
**A.** essential
